Reference: patent publication US20220153859A1 (ANOKION, published 2022)
Positions count from the first letter of the chain named. Blank lines part the entries; values can stand above or below the binder they belong to.

Key:
[1] = molecular target: T1, Human glycophorin A extract (hGPA extract) (human, UniProt P02724 20-150); experiment: Biacore SPR, hGPA extract, apparent KD; biphasic off-rate to fit data
T1 construct: also called human GPA extracted from red blood cells (extract)
T1 sequence (looked up): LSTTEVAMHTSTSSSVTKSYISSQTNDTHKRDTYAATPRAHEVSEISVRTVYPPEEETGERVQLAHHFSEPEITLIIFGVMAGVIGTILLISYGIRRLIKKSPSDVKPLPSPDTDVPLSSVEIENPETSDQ

[2] = molecular target: T1, Human glycophorin A extract (hGPA …); experiment: Biacore SPR, hGPA extract, apparent; biphasic off-rate to fit data
[3] = molecular target: T1, Human glycophorin A extract (hGPA …); experiment: Octet BLI, hGPA extract, apparent KD; biphasic off-rate to fit data
[4] = molecular target: T2, Human glycophorin A on human erythrocytes (human, UniProt P02724 20-150); experiment: flow cytometry (FACS) on human erythrocytes, soluble Fab
T2 construct: whole, on cells; Target of the flow cytometry assays on human erythrocytes; also called human GPA; hGPA
T2 sequence (looked up): T1 sequence (looked up)

[5] = molecular target: T1, Human glycophorin A extract (hGPA …); experiment: Octet BLI, hGPA extract, apparent; biphasic off-rate to fit data
[6] = molecular target: T2, Human glycophorin A on human …; experiment: flow cytometry on human erythrocytes, Fab in culture supernatant [C]
Method in brief: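 Fabs chosen from one CDR library by next-generation-sequencing enrichment were expressed as soluble Fabs in HEK cells in high-throughput format. Fab concentration in the culture supernatant was quantified by Octet biolayer interferometry. Supernatant Fabs were tested for binding to human erythrocytes by flow cytometry, read as median fluorescence intensity curves. These curves were compared with the parental Fab.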

Kd [1]: 6.83 nM | koff [2]: 0.00326 s⁻¹ | kon [2]: 477000 M⁻¹ s⁻¹ | Kd [3]: 6.83 nM | EC50 [4]: 4.6 nM | koff [5]: 0.0033 s⁻¹ | kon [5]: 480000 M⁻¹ s⁻¹
B2: Humanized & affinity matured 10F7-M10 Fab clone L1+2-19 (Fab)
heavy: EVQLLESGGGLVQPGKSLRLSCKASGYTFNSYFMHWVRQAPGKGLEWVGMIRPNGGTTDYNEKFKNRFTLSVDKSKNTAYLQMNSLRAEDTAVYYCARWEGSYYALDYWGQGTASTKGPSVFPLAPSSKSTSGGTAALGCLVKDYFPEPVTVSWNSGALTSGVHTFPAVLQSSGLYSLSSVVTVPSSSLGTQTYICNVNHKPSNTKVDKKVEPKSC
light: EITLTQSPATLSLSPGERATLSCRASSNVYQMYWYQQKPGQAPRLWIHHTSFLASGIPDRFSGSGSGTDYTLTISRLEPEDFAVYYCQQFTSSPYTFGQGTKVEVKRTVAAPSVFIFPPSDEQLKSGTASVVCLLNNFYPREAKVQWKVDNALQSGNSQESVTEQDSKDSTYSLSSTLTLSKADYEKHKVYACEVTHQGLSSPVTKSFNRGEC
notes: the tie is by these residues, not by the label; also called YQ-HH-F

binding result [6]: binds
B4: hF-3-103M1 Fab (humanized 3-103, clone M1; parental / wild-type Fab) (Fab, V domains shown)
VH: QVQLVQSGAEVKKPGASVKVSCTASGFNIKDTYMLWVRQAPGQGLEWMGRIDPANANSRYDPKFQGRVTITADTSTNTAYMELSSLRSEDTAVYYCVDGYMFAYWGQGTLVTVSS
VL: DVVMTQTPLSLSVTPGQPASISCKSSQSLLYSNGKTYLHWLLQKPGQSPQRLIYLVSKLDSGVPDRFSGSGSGTDFTLKISRVEAEDVGVYYCVQGTHFPLTFGQGTKLEIKR
notes: Soluble humanized Fab; also called parent Fab

More lines, now with the values behind:

B1: Humanized & affinity matured 10F7-M10 Fab clone L1+2-7 (Fab)
heavy: B2 heavy
light: B2 light with Y30H, Q31H, F52L
notes: Soluble Fab from HEK cells; all domains other than VL are the same as wild-type 10F7-M10; also called HH-HH-L
Kd [1]: 23.2 nM | koff [2]: 0.00371 s⁻¹ | kon [2]: 160000 M⁻¹ s⁻¹ | Kd [3]: 23 nM | EC50 [4]: 6.9 nM | koff [5]: 0.0037 s⁻¹ | kon [5]: 160000 M⁻¹ s⁻¹

B3: Humanized & affinity matured 10F7-M10 Fab clone L1+2-16 (Fab)
heavy: B2 heavy
light: B2 light with Y30F, F52E
notes: Soluble Fab from HEK cells; all domains other than VL are the same as wild-type 10F7-M10; also called FQ-HH-E
Kd [1]: 6.18 nM | koff [2]: 0.00376 s⁻¹ | kon [2]: 608000 M⁻¹ s⁻¹ | Kd [3]: 6.18 nM | EC50 [4]: 4.6 nM | koff [5]: 0.0038 s⁻¹ | kon [5]: 610000 M⁻¹ s⁻¹
